The values that follow come from patent US20140018288A1, “X-DING-CD4 Peptide” (priority 2012, published 2014).

Like-named read-outs stand apart in the source and are kept apart here.

The test has as its system HIV-1 LTR promoter. The test can be described thus: Rapid Suppression Assay (RSA), PMA-induced HIV-1 LTR-driven luciferase in 1G5 cells. The format is cell-based. Conditions: RSA; for IC50: PMA 5 ng/ml, read-out: IC50, HIV-1 LTR promoter inhibition. The source says:
We applied the cell based Rapid Suppression Assay (RSA) for testing X-DING-CD4-induced inhibition of HIV-1 LTR promoter (Lesner et al., 2004; Lesner et al., 2005). Briefly, 1 G5 cells (obtained through the NIH AIDS Research and Reagent Program, Division of AIDS, NIAID, NIH) that are stably transfected with an inducible luciferase gene driven by HIV-1 LTR (Aguilar-Cordova et al., 1994) were washed in PBS, resuspended in hybridoma medium to concentration of 5×10^6cells/ml. For purpose of generating control titration curves, 100 μl aliquots of 1G5 cells were mixed with 100 μl cell culture medium either supplemented with various amount of rX-DING-CD4^pep (SEQ ID No: 1) or no rX-DING-CD4^pep, and incubated for three hours at 37° C. Subsequently, all cells were induced with phorbol 12-myristate 13-acetate (PMA) at a concentration of 5 ng/ml. Two control tubes containing 1G5 cells without rX-DING-CD4^pep treatment were resuspended in hybridoma medium with or without PMA. Three hours later cells were collected by centrifugation and lysed in the same tubes using Reporter Lysis buffer (Promega). The expression levels of luciferase protein in the lysates were determined according to the manufacturer's protocol. The X-DING-CD4^pep inhibition values were established based on the formula: [(LUC1-LUC0)×100/Z]−100; where LUC1 is the value obtained from cells induced by PMA and treated with a specific dilution of X-DING-CD4^pep; and LUC0 is the basal value obtained from the uninduced and untreated cells; Z is the absolute luciferase induction by PMA calculated as Z=LUCmax-LUCO3 where LUCmax is the value of 100% luciferase expression in PMA induced X-DING-CD4^pep untreated cells.
One aspect of the present invention is related to X-DING-CD4 peptide derivatives. Here we obtained 15 derivatives SED ID NOS: 1-15 by recombination or in vitro synthesis. We tested the biological activity of some these derivatives by rapid suppression assay (RSA). In XD-4M, the third amino acid glycine in the native X-DING-CD4 peptide was substituted with the polar amino acid glutamine. In XD-7, the two amino acids, cysteine and valine, replaced the three amino acids, glycine, serine and aspartic acid, in the native X-DING-CD4 peptide. In XD-12 and XD-12sh, the 69th amino acid glutamic acid in the native X-DING-CD4 peptide was methylated. In XD-9, the 69th amino acid glutamic acid in the native X-DING-CD4 peptide was substituted with the amino acid glutamine. The RSA procedure was similar to that described in Example 2. The inhibitory values are plotted in FIG. 5.
We performed the rapid suppression assay (RSA) which tests directly the inhibition of HIV-1 transcription (similar to the procedure described in Example 2), the MAGI assay which tests the inhibition of HIV-1 replication in a single cycle infection (similar to the procedure described in Example 2), and the HIV-1 infection inhibition assay in human PBLs.

Where [1] appears, read: 1G5 cells, listed as rX-DING-CD4.

Usually IC50 stands for the midpoint of a concentration-inhibition curve.

B1: MADINGGGATLPQPLYQTSGVLTAGFAPYIGVGSGKGKLAFLNNDYSQFGTGTKNVHWAGSDSKLTSTELSTYASTKQAAWGKLIQVPSVATSVAIPFNKAGSNAVDLSVDQLCGVFSGRITTWNQ (protein, listed as Homo sapiens)
chain: MADINGGGATLPQPLYQTSGVLTAGFAPYIGVGSGKGKLAFLNNDYSQFGTGTKNVHWAGSDSKLTSTELSTYASTKQAAWGKLIQVPSVATSVAIPFNKAGSNAVDLSVDQLCGVFSGRITTWNQ
Turning to B1, the “concentration achieving inhibition of 90% HIV-1 LTR transcription” value is listed as 115.1 nM. For the same molecule, under “1G5 cells”, the “IC95, HIV-1 LTR promoter inhibition, mass concentration” value was 1.52 µg/mL; the “IC95, inhibitory dose blocking 95% transcription events” value is given as “about 115.1 nM”; the IC50 was around 8.18 nM. Moreover, under setting [1], the IC50 came to 8.2 nM and the “IC95, HIV-1 LTR promoter inhibition, mass concentration” value was “(1.514 μg/ml)”. Besides, where the note is “Table 1”, the “IC50, HIV-1 LTR promoter inhibition, mass concentration” value was “(0.107 ug/ml)” and the “IC95, HIV-1 LTR promoter inhibition” value was 116 nM.
